In patent US20130059772A1, “Use of Repeat Sequence Protein Polymers in Personal Care Compositions” (DANISCO US INC., priority 2003, published 2013):

How the values were obtained:
[1] = system: Fibroblasts (HDFn Cell Line); assay: Initial pilot cell viability dose response (MTT assay); details: for effect on the number of viable cells: initial dose response, summary in words; for cell viability, percent of untreated cells: 48 hours
Description: Initial screening was conducted to identify a test range suitable to determine the effect of a broad range of test material concentrations on cell viability. […] Cultured fibroblasts were exposed to the test materials for 48 hours and then changes in cell viability were determined using an MTT assay (i.e., a colorimetric analysis of the metabolic activity of the cultured cells, described in greater detail below).
The purple crystals are extracted from the cells with isopropanol and the amount of crystal formation quantified spectrophotometrically. […] A decrease in color intensity can be a sign of toxicity.
Fibroblasts (Cascade Biologics, HDFn Cell Line, lot#1C0914) were seeded into the individual wells of either a 96-well plate (for the initial pilot work to determine concentration effects on cell viability) in 100 μl of Fibroblast Growth Media (FGM) or in 12-well plates (for the measurement of collagen, elastin and MMP-1) in 1.0 ml of FGM and incubated overnight at 37±2° C. and 5±1% CO2. On the following day, the medium was removed via aspiration to eliminate any non-adherent cells and replaced with fresh FGM. The cells were grown until confluent, with a media change every 48 to 72 hours. Upon reaching confluency, the cells were treated for 24 hours with Dulbecco's Modified Essential Media (DMEM) supplemented with 1.5% FBS to wash out any effects from the growth factors included in the normal FGM. After this 24-hour wash out period, the cells were treated with the test materials at the specified concentrations dissolved in DMEM with 1.5% FBS. Untreated cells (negative controls) received DMEM with 1.5% FBS. The cells were incubated for 48 hours and at the end of the incubation period cell culture medium was either discarded (pilot work) or collected and stored frozen at −75° C. The test materials were tested in triplicate.
After the 2-day incubation, the cell culture medium was removed and the fibroblasts were washed twice with PBS to remove any remaining test material. After the final wash, either 100 μl (96-well plates) or 300 μl (12-well plates) of DMEM supplemented with 0.5 mg/ml MTT were added to each well and the cells were incubated for 1 hour at 37±2° C. and 5±1% CO2. After the incubation, the DMEM/MTT solution was removed and the cells were washed again once with PBS and then either 100 μl (96-well plates) or 1 ml (12-well plates) of isopropyl alcohol were added to each well to extract the purple formazin crystals. For the 12-well plates, two hundred microliters of the isopropyl extracts was transferred to a 96-well plate. The 96-well plates were read at 540 nm using isopropyl alcohol as a blank. The mean MTT absorbance value for the negative control cells was calculated and used to represent 100% value for cell viability. The individual MTT values from the cells undergoing the various treatments were then divided by the mean value for the negative control cells and expressed as a percent, to determine the change in cell viability caused by each treatment.

elastin = assay: Elastin assay (Fastin colorimetric assay of culture media); format: cell-based, human; details: 48 hours, spent fibroblast media, untreated 69 ± 2
Description: Elastin is released by fibroblasts (soluble elastin) into the extracellular space where it is then cross-linked to other elastin proteins to form an extensive network of fibers and sheets (insoluble elastin). Soluble elastin can be readily measured from cell culture medium via a colorimetric assay.
(§1) The test materials were tested in triplicate.
In these experiments, the Biocolor Fastin Elastin Assay kits were used. A 50 μl aliquot of sample material (cell culture medium for soluble elastin) was mixed with 1.0 ml of cold Fastin Precipitating Reagent in a 1.5-ml microcentrifuge tube. In addition to the spent media samples from the fibroblasts, 50 μl aliquots of the test materials diluted into fresh culture media at the concentrations used in the study were also assayed for elastin content. The sample/Fastin Precipitating Reagent mixture was then incubated overnight in an ice water bath to precipitate the elastin. On the following day, the cold microcentrifuge tubes were spun at 10,000×g for 10 minutes to pack the precipitated elastin and the supernatant was removed via careful aspiration.
One (1) ml of Fastin Dye Reagent, along with 100 μl of 90% saturated ammonium sulphate was added to each tube. The microcentrifuge tubes were mixed with a vortex mixer and then allowed to incubate for at least 60 minutes at room temperature, with gentle mechanical agitation. The Fastin Dye Reagent interacts with unique amino acid sequences in the elastin protein. This elastin-dye complex precipitates in the presence of ammonium sulphate. After the incubation was over, the microcentrifuge tubes were spun at 10,000×g for 10 minutes to separate the precipitated elastin-dye complex from the unbound dye. The supernatant was carefully removed and the tubes were inverted to allow any residual supernatant to drain out.
To release the elastin-bound dye, 1.0 ml of Fastin Destain reagent was added to each microcentrifuge tube. The tubes were capped as quickly as possible, as this reagent contains ammonia and methanol. The tubes were then vortexed. The absorbance of this solution was measured by a plate reader at 490 nm (200 μl volume read).
An elastin standard curve was generated using 12.5, 25, and 50 μg aliquots of an Elastin Standard into microcentrifuge tubes (in duplicate). These samples were treated as described above (Elastin Assay) and the absorbance values were used to generate a standard curve of known concentrations. To derive the standard curve for the elastin assay, the absorbance was plotted against the elastin concentration in μg/ml for the standards. […] Mean absorbance values for the test materials and untreated samples were then used to estimate the amount of elastin present in each sample.

MMP-1 = MMP-1 assay (fluorometric ELISA of fibroblast culture media); format: cell-based, human; details: for MMP-1 Activity: 48 hours, untreated 0.11 ± 0.05; for effect on MMP-1 activity: summary in words
Description: MMP-1 is a zinc and calcium dependent endopeptidase that is produced and released from both dermal fibroblasts and keratinocytes, and functions to break down collagens located in the extracellular matrix. Active MMP-1 released into the culture media can be assayed using a fluorescence-based ELISA. […] To quantify the active MMP-1 a fluorogenic substrate linked to a quencher molecule is added and any active MMP-1 present will cleave the peptide linkage between the fluorophore and the quencher molecule. This cleavage will eliminate the quencher molecules ability to inhibit the fluorescent signal of the fluorophore allowing a fluorescent signal that will be proportional to the amount of active MMP-1 present.
as §1
R&D Products MMP-1 Fluorokine E fluorometric ELISA kits were used in these experiments. A series of MMP-1 standards was prepared ranging from 0.39 ng/ml to 25 ng/ml and an ELISA microplate was prepared by removing any unneeded strips from the plate frame. In each well, 200 μA of Assay Diluent RD1-64 and 50 μA of each sample were added. For the standards, 100 μl of Assay Diluent RD1-64 and 150 μl of each respective standard were added. The plate was incubated for 3±0.25 hours at room temperature on a rocking platform. At the end of the incubation period, each well was aspirated and then washed four times with 400 μl of wash buffer. […] After the incubation period, the plate was washed four times as described above. After the last wash, 200 μl of substrate solution were added to each well and the plate was incubated for 17-20 hours at 37±2° C. (protected from light). At the end of the incubation period, the fluorescence intensity was measured (excitation 320 nm, emission 405 nm) using a fluorometer using a 20 mS integration time. To quantify the amount of MMP-1 activity, a standard curve was generated using known activity levels of MMP-1. […] Mean absorbance values for the test materials and untreated samples were then used to estimate the amount of MMP-1 activity present in each sample.

[2] = system: procollagen type I C-peptide; assay: Procollagen assay (type I C-peptide ELISA of fibroblast culture media); format: cell-based, human; details: 48 hours, untreated 873 ± 111
Excerpt: Collagen is synthesized as part of a much larger procollagen peptide. As the peptide is processed to form a mature collagen protein, the propeptide portion is cleaved off (type I C-peptide). Both the mature collagen protein and the type I C-peptide fragment are then released into the extracellular environment and accumulate in the culture media. Since there is a 1:1 stoichiometric ratio between the two parts of the procollagen peptide, assaying for type I C-peptide will reflect the amount of collagen synthesized. Type 1 C-peptide can be assayed via an ELISA based method.
as §1
Takara procollagen type IC-peptide ELISA kits were used in these experiments. A series of type I C-peptide standards was prepared ranging from 40 ng/ml to 640 ng/ml. An ELISA microplate was then prepared by removing any unneeded strips from the plate frame. To each well in the plate 100 μl of peroxidase-labeled anti procollagen type I-C peptide was added, followed by 20 μA of either sample (tissue culture media) or standard. The microplate was covered and allowed to incubate for 3±0.25 hours at 37° C. After the incubation period, each well was aspirated and washed three times with 400 μl of wash buffer. After the last wash was removed, 100 μl of peroxidase substrate solution (hydrogen peroxide containing tetramethylbenzidine as a chromagen) were added to each well and the plate was incubated for 15±5 minutes at room temperature. After the incubation period, 100 μA of stop solution (1 N sulfuric acid) was added to each well and the plate was read using a microplate reader at 450 nm. To quantify the amount of procollagen present, a standard curve was generated using known concentrations of procollagen type 1-C peptide. […] Mean absorbance values for the test materials and untreated samples was then used to estimate the amount of procollagen type 1-C peptide present in each sample.

B1: GC2596-26-E: collagen-like repeat sequence protein polymer, head-[(GAHGPAGPK)2(GAQGPAGPG)24(GAHGPAGPK)2]4-tail; SEQ ID NO:34 (Example 5) (protein)
chain: MDPVVLQRRDWENPGVTQLNRLAAHPPFASDPMGAHGPAGPKGAHGPAGPKGAQGPAGPGGAQGPAGPGGAQGPAGPGGAQGPAGPGGAQGPAGPGGAQGPAGPGGAQGPAGPGGAQGPAGPGGAQGPAGPGGAQGPAGPGGAQGPAGPGGAQGPAGPGGAQGPAGPGGAQGPAGPGGAQGPAGPGGAQGPAGPGGAQGPAGPGGAQGPAGPGGAQGPAGPGGAQGPAGPGGAQGPAGPGGAQGPAGPGGAQGPAGPGGAQGPAGPGGAHGPAGPKGAHGPAGPKGAHGPAGPKGAHGPAGPKGAQGPAGPGGAQGPAGPGGAQGPAGPGGAQGPAGPGGAQGPAGPGGAQGPAGPGGAQGPAGPGGAQGPAGPGGAQGPAGPGGAQGPAGPGGAQGPAGPGGAQGPAGPGGAQGPAGPGGAQGPAGPGGAQGPAGPGGAQGPAGPGGAQGPAGPGGAQGPAGPGGAQGPAGPGGAQGPAGPGGAQGPAGPGGAQGPAGPGGAQGPAGPGGAQGPAGPGGAHGPAGPKGAHGPAGPKGAHGPAGPKGAHGPAGPKGAQGPAGPGGAQGPAGPGGAQGPAGPGGAQGPAGPGGAQGPAGPGGAQGPAGPGGAQGPAGPGGAQGPAGPGGAQGPAGPGGAQGPAGPGGAQGPAGPGGAQGPAGPGGAQGPAGPGGAQGPAGPGGAQGPAGPGGAQGPAGPGGAQGPAGPGGAQGPAGPGGAQGPAGPGGAQGPAGPGGAQGPAGPGGAQGPAGPGGAQGPAGPGGAQGPAGPGGAHGPAGPKGAHGPAGPKGAHGPAGPKGAHGPAGPKGAQGPAGPGGAQGPAGPGGAQGPAGPGGAQGPAGPGGAQGPAGPGGAQGPAGPGGAQGPAGPGGAQGPAGPGGAQGPAGPGGAQGPAGPGGAQGPAGPGGAQGPAGPGGAQGPAGPGGAQGPAGPGGAQGPAGPGGAQGPAGPGGAQGPAGPGGAQGPAGPGGAQGPAGPGGAQGPAGPGGAQGPAGPGGAQGPAGPGGAQGPAGPGGAQGPAGPGGAHGPAGPKGAHGPAGPKMDPGRYQLSAGRYHYQLVWCQK
modifications: silk-elastin repeat sequence protein copolymer
Which results are given for B1?
effect on the number of viable cells [1]: reduce the number of viable cells; Elastin (elastin; 0.001%): 63 ± 10 μg/ml media; Elastin (elastin; 0.005%): 59 ± 5 μg/ml media; Elastin (elastin; 0.01%): 50 ± 18 μg/ml media; MMP-1 Activity (MMP-1; 0.001%): 0.04 ± 0.05 ng/mL; MMP-1 Activity (MMP-1; 0.005%): -0.01 ± 0.02 ng/mL; MMP-1 Activity (MMP-1; 0.01%): 0.00 ± 0.02 ng/mL; effect on MMP-1 activity (MMP-1): almost complete loss of detectable MMP-1 activity; Type-1 C Peptide ([2]; 0.001%): 838 ± 75 ng/mL; Type-1 C Peptide ([2]; 0.005%): 1162 ± 194 ng/mL; Type-1 C Peptide ([2]; 0.01%): 956 ± 110 ng/mL

B2: GC2596-26-D: SELP47K modified with two units of ALSYP (SEQ ID NO:36) peptides in each SELP47K unit; SEQ ID NO:32 (Example 4) (protein)
chain: MDPVVLQRRDWENPGVTQLNRLAAHPPFASDPMGAGAGSGAGAGSALSYPGVGVPGVGVPGVGVPGVGVPGKGVPGVGVPGVGVPGVGVPALSYPGAGAGSGAGAGSGAGAGSGAGAGSALSYPGVGVPGVGVPGVGVPGVGVPGKGVPGVGVPGVGVPGVGVPALSYPGAGAGSGAGAGSGAGAGSGAGAGSALSYPGVGVPGVGVPGVGVPGVGVPGKGVPGVGVPGVGVPGVGVPALSYPGAGAGSGAGAGSGAGAGSGAGAGSALSYPGVGVPGVGVPGVGVPGVGVPGKGVPGVGVPGVGVPGVGVPALSYPGAGAGSGAGAGSGAGAGSGAGAGSALSYPGVGVPGVGVPGVGVPGVGVPGKGVPGVGVPGVGVPGVGVPALSYPGAGAGSGAGAGSGAGAGSGAGAGSALSYPGVGVPGVGVPGVGVPGVGVPGKGVPGVGVPGVGVPGVGVPALSYPGAGAGSGAGAGSGAGAGSGAGAGSALSYPGVGVPGVGVPGVGVPGVGVPGKGVPGVGVPGVGVPGVGVPALSYPGAGAGSGAGAGSGAGAGSGAGAGSALSYPGVGVPGVGVPGVGVPGVGVPGKGVPGVGVPGVGVPGVGVPALSYPGAGAGSGAGAGSGAGAGSGAGAGSALSYPGVGVPGVGVPGVGVPGVGVPGKGVPGVGVPGVGVPGVGVPALSYPGAGAGSGAGAGSGAGAGSGAGAGSALSYPGVGVPGVGVPGVGVPGVGVPGKGVPGVGVPGVGVPGVGVPALSYPGAGAGSGAGAGSGAGAGSGAGAGSALSYPGVGVPGVGVPGVGVPGVGVPGKGVPGVGVPGVGVPGVGVPALSYPGAGAGSGAGAGSGAGAGSGAGAGSALSYPGVGVPGVGVPGVGVPGVGVPGKGVPGVGVPGVGVPGVGVPALSYPGAGAGSGAGAGSGAGAGSGAGAGSALSYPGVGVPGVGVPGVGVPGVGVPGKGVPGVGVPGVGVPGVGVPALSYPGAGAGSGAGAGSGAGAMDPGRYQDLRSHHHHHH
modifications: SELP 47K-P4
For B2, which “cell viability, percent of untreated cells” value (“cell viability, percent” below) ([1]; 0.0014%) is on record?
The value was 130 ± 15%.

What about the “cell viability, percent” value ([1]; 0.007%) of the same molecule?
Its value is 138 ± 9%.

What about the “cell viability, percent” value ([1]; 0.014%) of the same molecule?
The value was 145 ± 12%.

What about the “cell viability, percent” value ([1]; 0.07%) of the same molecule?
Its value is 145 ± 11%.

And the “cell viability, percent” value ([1]; 0.14%)?
Its value is 154 ± 24%.

What about the “effect on the number of viable cells” value [1] of the same molecule?
The value was “strongly stimulate increases in the number of viable cells”.

What about the Elastin (elastin; 0.0014%) of the same molecule?
The Elastin was 72 ± 12 μg/ml media.

And the Elastin (elastin; 0.007%)?
The Elastin was 69 ± 4 μg/ml media.

And the Elastin (elastin; 0.014%)?
Its Elastin is 68 ± 10 μg/ml media.

And the “MMP-1 Activity” value (MMP-1; 0.0014%)?
The value was -0.01 ± 0.01 ng/mL.

And the “MMP-1 Activity” value (MMP-1; 0.007%)?
The value was -0.02 ± 0.02 ng/mL.

What about the “MMP-1 Activity” value (MMP-1; 0.014%) of the same molecule?
Its value is -0.03 ± 0.01 ng/mL.

And the “effect on MMP-1 activity” value (MMP-1)?
The value was “almost complete loss of detectable MMP-1 activity”.

What about the “Type-1 C Peptide” value ([2]; 0.0014%) of the same molecule?
The value was 894 ± 156 ng/mL.

What about the “Type-1 C Peptide” value ([2]; 0.007%) of the same molecule?
Its value is 908 ± 94 ng/mL.

And the “Type-1 C Peptide” value ([2]; 0.014%)?
Its value is 829 ± 171 ng/mL.
